This note sets out measurements from patent US20070203325A1 (published 2007).

The target of one test is GST-Impα (Rch1) (human, UniProt P52292 1-529). The test can be described thus: GST pull-down of in vitro translated 35S-labelled protein (0.25% NP40), autoradiography.
A further test concerns the target T1, GST-impβ (UniProt Q14974 1-876).
T1 construct: also called Imps
The test is described as above.

T1 sequence (Q14974 whole entry): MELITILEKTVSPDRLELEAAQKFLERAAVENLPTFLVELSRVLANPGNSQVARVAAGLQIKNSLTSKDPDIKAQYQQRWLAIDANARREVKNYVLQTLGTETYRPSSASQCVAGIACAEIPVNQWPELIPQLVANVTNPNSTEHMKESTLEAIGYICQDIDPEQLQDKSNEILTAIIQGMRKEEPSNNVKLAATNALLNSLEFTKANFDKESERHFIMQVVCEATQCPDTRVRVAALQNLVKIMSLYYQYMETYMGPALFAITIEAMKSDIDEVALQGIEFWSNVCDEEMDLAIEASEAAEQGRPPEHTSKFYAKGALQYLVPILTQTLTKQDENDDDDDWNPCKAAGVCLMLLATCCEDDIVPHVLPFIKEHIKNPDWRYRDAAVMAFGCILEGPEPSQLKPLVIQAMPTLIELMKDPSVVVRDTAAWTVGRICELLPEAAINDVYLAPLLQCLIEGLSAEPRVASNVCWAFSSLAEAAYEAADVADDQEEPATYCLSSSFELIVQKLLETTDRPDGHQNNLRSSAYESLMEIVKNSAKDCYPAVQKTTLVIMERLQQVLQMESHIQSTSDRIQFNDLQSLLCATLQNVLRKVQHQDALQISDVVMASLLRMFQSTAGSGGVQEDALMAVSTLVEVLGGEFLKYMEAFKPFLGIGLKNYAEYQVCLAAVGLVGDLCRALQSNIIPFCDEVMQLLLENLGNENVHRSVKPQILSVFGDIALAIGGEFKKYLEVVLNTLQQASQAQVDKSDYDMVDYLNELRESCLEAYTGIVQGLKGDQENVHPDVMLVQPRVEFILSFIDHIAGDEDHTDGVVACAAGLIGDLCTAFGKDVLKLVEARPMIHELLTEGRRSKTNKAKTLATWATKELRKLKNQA

B1: T7-CAT (enzyme)
chain: MEKKITGYTTVDISQWHRKEHFEAFQSVAQCTYNQTVQLDITAFLKTVKKNKHKFYPAFIHILARLMNAHPEFRMAMKDGELVIWDSVHPCYTVFHEQTETFSSLWSEYHDDFRQFLHIYSQDVACYGENLAYFPKGFIENMFFVSANPWVSFTSFDLNVANMDNFFAPVFTMGKYYTQGDKVLMPLAIQVHHAVCDGFHVGRMLNELQQYCDEWQGGA
For the molecule B1, the binding result in the test with GST-Impα (Rch1) and with GST-impβ was “no binding” throughout.
